Reference: PMC10720262 (Cell Reports, 2023)

Target: recombinant full-length PfCSP (Plasmodium falciparum circumsporozoite protein, strain NF54) (Plasmodium falciparum NF54, UniProt P19597)
Sequence (P19597 20-375): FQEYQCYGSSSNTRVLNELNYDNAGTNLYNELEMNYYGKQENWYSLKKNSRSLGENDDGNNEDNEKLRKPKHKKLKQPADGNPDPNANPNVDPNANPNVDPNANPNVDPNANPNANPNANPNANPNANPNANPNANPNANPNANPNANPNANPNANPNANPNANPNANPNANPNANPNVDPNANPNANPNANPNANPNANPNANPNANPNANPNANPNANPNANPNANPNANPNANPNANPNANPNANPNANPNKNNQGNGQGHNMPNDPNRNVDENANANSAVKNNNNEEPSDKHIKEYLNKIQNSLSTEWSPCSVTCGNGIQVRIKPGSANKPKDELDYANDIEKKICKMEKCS

Row | Binder | binding result
1 | CL-458015 (antibody, V domains shown) VH: QVHLVESGGGVVQPGRSLRLSCAASGFTFSNYGMHWVRQAPGKGLDWVAIIWYDGSNKFYADSVQGRFTISRDNSKNTLYLQMNSLRAEDTAVYYCAKVQDLLGVPSTLGDHYTTDVWGQGTSVTVSS VL: DIQMTQSPSTLSASVGDRITITCRASQSINDWLAWYQQKAGKAPKLLIYKASSLESGVPSRFSGSGSGTDFTLTISSLQTDDFAIYYCQQYNHYWTFGQGTKVEIK | binds
2 | CL-459075 (antibody, V domains shown) VH: QVQLVASGGGVVQPGRSLRLSCAASGFTFSNYGMHWVRQAPGKGLEWVSIIWYDGSKKYYSDSVKGRFTISRDNSKNTLYLQMNSLRAEDTAVYYCARAYGSGSYSDDYYGMDVWGQGTTVTVSS VL: DIQMTQSPSTLSASVGDRVTITCRASQSISTWLAWCQQKPGKAPKLLIYKASNLESGVPSRFSGSGSGTEFTLTISSLQPDDFATYYCQQYYSYWTFGQGTKVEIK | binds
3 | CL-459404 (antibody, V domains shown) VH: QVQLVASGGGVVQPGRSLRLSCAASGFTFSNYGMHWVRQAPGKGLEWVAIIWYDGSKKYYSDSVKGRFTISRDNSKNTLNLQMNSLRAEDTAVYYCARAYGSGSYSDDYYGMDVWGQGTTVTVSS VL: DIQMTQSPSTLSASVGDRVTITCRASQSISPWLAWFQQKPGKAPKLLIYKASNLESGVPSRFSGSGSGTEFTLTISSLQPDDFATYYCQQYYTYWTFGQGTKVEIK | binds
4 | CL-460369 (antibody, V domains shown) VH: QVQLVESGGGVVQPGRSLRLSCAASGFTFSNYGMHWVRQAPGKGLEWVGIIWYDGSNKYYIDSVKGRFTISRDNSRNTLYLQINSLRAEDTAVYYCARDGGWNDDYYYVMDVWGQGTTVTVSS VL: DIVMTQSPDSLAVSLGEGATINCKSSQSVLYSSNNKNYLAWYQQKPGQPPKVLIYWASIRESGVPDRFSGSGSGTDFTLTISSLQAEDVAVYYCQQYYSMCSFGQGTKLEIK | binds
5 | CL-460406 (antibody, V domains shown) VH: QIQLVESGGGVVQPGRSLRLSCAASGFTFSNSGMHWIRQAPGKGLEWVTIIWYDGSNKYYADSVKGRFTISRDNSKNTLYLQMNSLRAEDTAIYYCARAYSSSSDDYYGMDVWGQGTTVTVSS VL: DIQMTQSPSTLSASVGDRVTITCRASQSISSWLAWYQQKPGKAPKLLIYKASSLESGVPSRFSGSGSGTDFTLTISSLQPDDFATYYCQQFYNYWTFGQGTKVEIT | binds
6 | CL-460506 (antibody, V domains shown) VH: QVQLVESGGGVVQPGRSLRLSCAASGFTFSNYGMHWVRQAPGKGLEWMAIIWYDGSNKYYADSVKGRFTISRDNSMNTLYLQMNSLRPEDTALYYCARAFYYGSGTLDYWGQGTLVTVSS VL: EIVLTQSPATLSVSPGERATLSCRASQSVSSHLAWYQQKFGQAPRLLIYGASNRATGIPARFSGSGSGTEFTLTISILQSEDFAVYYCQQYNNWFTFGPGTKIDIK | binds
7 | CL-460619 (antibody, V domains shown) VH: QVQLVESGGGVVQPGRSLRLSCAASGFTFDYYGMHWVRQAPGKGLEGVAIIWYDGSNKFYADSVKGRFTISRDNSKNTLYLQMTSLRVEDTAVYYCARDGRIGDPGPYFDYWGQGTLVTVSS VL: EIVMTQSPATLSVSPGERPTLSCRASQSVSSKLAWYQQKPDQAPRLLIYGASTRATGIPPRFSGSGSGTEFTLTIDSLQSEDFAVYYCQQYHKWWTFGQGTKVEIK | binds
8 | CL-462788 (antibody, V domains shown) VH: QVQLVESGGGVVQPGRSLRLSCAASGFTFRNYGMHWVRQAPGKGLEWVAIIWYDGSYKFYADSVKGRFTISRDNSKNTLYLQMNSLRAEDTAMYYCARDDALELRSFDIWGQGTMVTVSS VL: DVVMTQSPLSLPVTLGQPASISCRSSQSLVYSDENTYLSWFQQRPGQSPRRLIYKISNRDSGVPDRFSGSGSGTDFTLKISRVEAEDVGVYYCMQGTHWPRTFGQGTEVEIK | binds
9 | CL-462911 (antibody, V domains shown) VH: QVHLVESGGGVVQPGRSLTLSCAASGFTFSSCGMHWVRQAPGKGLEWLAVIWYDGSNKYYADSVKGRFTISRDNSKNTLYLQMNSLRAEDTAVYYCARDGGYVRDYYYGMDVWGQGTTVTVSS VL: not shown | binds
10 | CL-464097 (antibody, V domains shown) VH: QVQLVESGGGAVQPGRSLRLSCAASGFTFSYNGMHWVRQAPGKGLEWVAIIWYDGSNKYYAESVKGRFTISRDNSKDTLYLQMNSLRAEDTAIYYCVRAWNYEDKKYSMDVWGQGTTVTVSS VL: DIQMTQSPSTLSASVGDRVTITCRASQSISSWLAWYQQKPGKAPKLLIYKASSLESGVPSRFSGSGSGTDFTLTISSLQPDDFATYYCQQYNYFWTFGQGTKVEIR | binds
11 | CL-464181 (antibody, V domains shown) VH: QVQLVESGGGAVQAGTSLRLSCAASGFSFSYNGMHWVRQGPGKGLEWVAIIWYDGGNKFYADSVKGRFTISRDNSKKMLYLQMNRLRAEDTAVYYCARAWNFADNKYSMDVWGQGTTVTVSA VL: DIQMTQSPSTLSASVGDRVTITCRASQSISCWLAWYQQKPGKAPQLLIYKASSLESGVPSRFSGSGSGTEFTLTISSLQPDDFATYYCQQYYIYWTFGQGTKVDIK | binds
12 | CL-464277 (antibody, V domains shown) VH: QVQLVASGGGVVQPGRSLRLSCAVSGFTFRNYGMHWVRQDPGRGLEWVAIIWYDGSYKFYADSVKGRFTISRDNSKNTLYLQMNSLRAEDTAVYYCARSYGSLTGDQTKYGMDVWGQGTTVSVSS VL: not shown | binds
13 | CL-508731 (antibody, V domains shown) VH: QVQLVESGGGVVQPGRSLRLSCVASGFTFSNNGMHWVRQAPGKGLEWVAIIWHDGSNKFYAESVRGRFTISRDNSNNTLYLQMNSLRAEDTAVYYCARDRMFGSGSWNYFDPWGQGTLVTVSS VL: EIVLTQSPATLSLSPGERATLSCRASQSISTYLAWYQQKPGQAPRLLIYDASNRATGIPARFSGSGSGTDFTLTISSLEPEDFAVYYCQQRSYWWTFGQGTKVEIK | binds
14 | CL-508758 (antibody, V domains shown) VH: QVQLVESGGGVVQPGRSLRLSCAASGFTFSNYGMHWVRQTPGRDLEWVAIIWYDGSYKFYADSVKGRFSISRDNSKNTLNLEMKSLRVEDTAVYYCAKAYDTSSDDKYGMDVWGQGTTVTVTS VL: DIQMTQSPSTLSASVGDRVTITCRASQSISIWLAWYQQKPGKAPKLLIYRASDLESGVPSRFSGSGSGTGFTLTISSLQPDDFATYYCQQYNSYWTFGQGTKVEIK | binds
15 | CL-509025 (antibody, V domains shown) VH: QVQLVESGGGVVQPGRSLRLSCVASGFTFSDYGMHWVRQAPGKGLEWVAVIWYDGTKEFFADSVKGRFTISRDNSKDTLYLQMNSLRAEDTGIYYCATYKWNSHLDYWGQGTLVTVSS VL: EIVLTQSPATLSLSPGERATLSCRASQTISSYLAWYQQKPGQAPRLLIYDASNRATGIPARFSGSGSGTDFTLTISSLEPEDFTVYYCQQRSNWPLTFGGGTKVGIK | binds
16 | CL-509177 (antibody, V domains shown) VH: QVQLVESGGGVVQPGRSLRLSCAASGFSFSSYGMHWVRQTPGKGLEWVAIIWYDGSNKFYADSVKGRFIISRDNSKNTLYLQMNSLRAEDTAVYYCARDGGYSTSAGDFDYWGQGTLVTVSS VL: EIVLTQSPGTLSLSPGERATLSCRASQSVSSSYLAWYQQKPGQAPRLLIYGASSRATGIPDRFSGRGSGTDFTLTISRLEPEDFAVYYCQQYVSSFTFGPGTKVDIN | binds
17 | CL-509293 (antibody, V domains shown) VH: QVQLVASGGGVVQPGRSLRLTCAASGFTFSNYGMHWVRQSPGRGLEWVAIIWYDGSNKFYADSVKGRFTISRDNSKNTLYLQMNSLRAEDTAVYYCAKAEQRTNDNYYKYGMDVWGQGTTVTVST VL: not shown | binds
18 | CL-509326 (antibody, V domains shown) VH: QVYLVESGEGVVQPGRSLRLSCAASGFTFSNYGMHWVRQAPGKGLEWVAVIWYNGNNKFYADSVKGRFTISRDNSKNTLFLQMNSLRAEDTAVYFCARSGYSRSSYFDYWGQGTLVTVSS VL: QSVLTQPPSVSGAPGQRVTISCTGSSSNIGAVYDVHWYQQLPGTAPKLLIYGNTNRPSGVPDRFSGSQSGTSASLAITGLQAEDEADYYCQSYDSSLSGSVFGGGTKLTVL | binds
19 | CL-509370 (antibody, V domains shown) VH: QVQLVESGGGVVQPGRSLRLSCAASGFTFSSYGMHWVRQAPGKGLEWVAVIWYDGSNKFYADSVKGHFTISRDNSKNTLYLQMNSLRAEDTAVYYCARDGRDLRGTGPYFDPWGQGTLVTVSS VL: EIVMTQSPATLSVSPGERAILSCRASQSVSSNLAWYQQKPGQAPRLLIYGASIRATGIPARFRGSGSGTEFTLTISILQSEDFAVYYCQQYNNWITFGQGTRLEIK | binds
20 | CL-509494 (antibody, V domains shown) VH: QVQLVESGGGVVQPGRSLRLSCAASGFTFSNFGMHWVRQSPGRGLEWVAIIWYDGSHKFYADSVKGRFTISRDNSKNTLYLQMNSLRAEDTAVYYCAKSEQRTNDHYYKYGMDVWGQGTTVTVST VL: DIQMTQSPSTLSASVGDRVTITCRASQSISSWLAWYQQKPGKAPTLLIYKASSLESGVPSRFSGSGSGTEFTLTISSLQPDDFATYYCQQYTNYWTFGQGTKVEIK | binds
21 | CL-509880 (antibody, V domains shown) VH: QVQLVESGGGVVQPGRSLRLSCAASGFTFSNSGMHWVRQAPGKGLEWVAVIWYDGSNKYYADSVKGRFTVTRDNSKNTLYLQMNSLRAEDTAVYYCVRAYYGSGSYHFKYGMDVWGQGTTVTVSS VL: not shown | binds
22 | CL-509930 (antibody, V domains shown) VH: QVQLVESGGGVVQPGRSLRLSCAASGFTFSSYGMHWVRQAPGKGLEWVAIIWHDGSNKYYADSVKGRFTISRDNSKNTLYLQMNSLRAEDTAVYYCARDYSSFYFDYWGQGTLVTVSS VL: not shown | binds
23 | CL-509940 (antibody, V domains shown) VH: QVQLVESGGGVVQPGRSLRLSCAASGFTFSTYGMHWVRQAPGKGLEWVAVIWYDGSIKFYADSVKGRFTISRDDSKNTLYLQMNSLRAEDTAVYYCARDGGYSDSGRFGWFDPWGQGNLVTVSS VL: EIVMTQSPVTLSVSPGERVTLSCRASQSVSSNLAWYQQKPGQAPRLLIYGASNRATGIPDRFSGSGSGTEFSLTVTSLQSEDFAVYYCQQYNQWRTFGQGTKVEIR | binds
